Source: article PMC4545946, “Human Papillomavirus Type 18 cis-Elements Crucial for Segregation and Latency”

Assays:
Conditions in all cases: protein: recombinant; tags: N-terminal Strep-II; chain copies: 2; label: 32P 5' end
[1] = biological target: T1, HPV-18 E2 (N-terminal Strep-II tag) (Human papillomavirus type 18, UniProt P06790 1-365); assay: EMSA; two dimers, cooperative; k12 order 1-Linker < 3-Linker < 2-Linker (values only in Fig 4D); >95% probe bound at 1.65 uM E2
[2] = biological target: T1, HPV-18 E2 (N-terminal Strep-II tag); assay: EMSA; two dimers, cooperative; highest k12 (value only in Fig 4D)
[3] = biological target: T1, HPV-18 E2 (N-terminal Strep-II tag); assay: EMSA; two dimers, cooperative; intermediate k12 (value only in Fig 4D)

T1 sequence (P06790 whole entry): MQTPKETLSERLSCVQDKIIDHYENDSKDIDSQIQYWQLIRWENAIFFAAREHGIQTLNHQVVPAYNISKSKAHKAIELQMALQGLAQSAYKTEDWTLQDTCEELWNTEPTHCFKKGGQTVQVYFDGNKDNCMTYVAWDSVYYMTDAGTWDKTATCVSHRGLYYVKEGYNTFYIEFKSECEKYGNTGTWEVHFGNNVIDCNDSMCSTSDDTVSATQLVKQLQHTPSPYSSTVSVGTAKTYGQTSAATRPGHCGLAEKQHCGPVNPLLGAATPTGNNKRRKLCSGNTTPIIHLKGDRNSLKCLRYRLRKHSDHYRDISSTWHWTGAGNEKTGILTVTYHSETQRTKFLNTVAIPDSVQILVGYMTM

B1: 1-Linker (wt, E2BS #1 and #2 with CGGG spacer) (dsDNA)
DNA 1: ACCGAAAACGGTCGGGACCGAAAACGGT
DNA 2: ACCGTTTTCGGTCCCGACCGTTTTCGGT
[1]
  binding result: binds

B2: 2-Linker (E2BS #1 and #2, 8 bp spacer) (dsDNA)
DNA 1: ACCGAAAACGGTCGGGCGGGACCGAAAACGGT
DNA 2: ACCGTTTTCGGTCCCGCCCGACCGTTTTCGGT
[2]
  binding result: binds

B3: 3-Linker (E2BS #1 and #2, 12 bp spacer) (dsDNA)
DNA 1: ACCGAAAACGGTCGGGCGGGCGGGACCGAAAACGGT
DNA 2: ACCGTTTTCGGTCCCGCCCGCCCGACCGTTTTCGGT
[3]
  binding result: binds
